The record followed here is article PMC12102759 (2025).

First the molecules themselves.
B1: NOTCH4 peptide 1606-1621 (Neurogenic locus notch homolog protein 4), 16-mer library wild type / NSP9 (ORF1ab Nsp9, residues 4141-4253) (parent complex)
chain 1: QGAWLGAPEPWEPLLD
chain 2: NNELSPVALRQMSCAAGTTQTACTDDNALAYYNTTKGGRFVLALLSDLQDLKWARFPKSDGTGTIYTELEPPCRFVTDTPKGPKVKYLYFIKGLNNLNRGMVLGSLAATVRLQ

In this assay the parent is B1. Description: bait immobilised on MaxiSorp plates (10 µg), library pre-cleared on GST, 2 h binding at 4 °C, five washes; one round per day, days 1-4; value from days 2 and 3.
For chain 1 QGAWLGAQEPWEPLLD, the screen value was 0.000198 average fractional NGS count over selection days 2 and 3 (reads of this peptide / all reads for the bait, averaged over ….
In the case of chain 1 QGAWLGAGEPWEPLLD, the screen value is 0.000266 average fractional NGS count over selection days 2 and 3 (reads of this peptide / all reads for the bait, averaged over ….
As for chain 1 QGAWLGAWEPWEPLLD, the figure is 0.000478 average fractional NGS count over selection days 2 and 3 (reads of this peptide / all reads for the bait, averaged over …; as for chain 1 QGAWLGAYEPWEPLLD, 0.000389 average fractional NGS count over selection days 2 and 3 (reads of this peptide / all reads for the bait, averaged over ….
The same measure for chain 1 QGAWLGAHEPWEPLLD: 0.00106 average fractional NGS count over selection days 2 and 3 (reads of this peptide / all reads for the bait, averaged over …; for chain 1 QGAWLGAAEPWEPLLD: 0.000677 average fractional NGS count over selection days 2 and 3 (reads of this peptide / all reads for the bait, averaged over …; for chain 1 QGAWLGATEPWEPLLD: 0.001 average fractional NGS count over selection days 2 and 3 (reads of this peptide / all reads for the bait, averaged over ….
As for chain 1 QGAWLGAREPWEPLLD, the figure is 8.2e-05 average fractional NGS count over selection days 2 and 3 (reads of this peptide / all reads for the bait, averaged over ….
Turning to chain 1 QGAWLGANEPWEPLLD, the screen value is 0.000215 average fractional NGS count over selection days 2 and 3 (reads of this peptide / all reads for the bait, averaged over ….
As to chain 1 QGAWLGALEPWEPLLD, the screen value was 0.000953 average fractional NGS count over selection days 2 and 3 (reads of this peptide / all reads for the bait, averaged over ….
As for chain 1 QGAWLGADEPWEPLLD, the figure is 0.000161 average fractional NGS count over selection days 2 and 3 (reads of this peptide / all reads for the bait, averaged over …; as for chain 1 FGAWLGAPEPWEPLLD, 0.000338 average fractional NGS count over selection days 2 and 3 (reads of this peptide / all reads for the bait, averaged over ….
For chain 1 MGAWLGAPEPWEPLLD, the screen value is 0.00503 average fractional NGS count over selection days 2 and 3 (reads of this peptide / all reads for the bait, averaged over ….
As for chain 1 WGAWLGAPEPWEPLLD, the figure is 0.000692 average fractional NGS count over selection days 2 and 3 (reads of this peptide / all reads for the bait, averaged over ….
Consider chain 1 NGAWLGAPEPWEPLLD, for which the screen value is 0.00294 average fractional NGS count over selection days 2 and 3 (reads of this peptide / all reads for the bait, averaged over ….
The same measure for chain 1 DGAWLGAPEPWEPLLD: 0.000709 average fractional NGS count over selection days 2 and 3 (reads of this peptide / all reads for the bait, averaged over …; for chain 1 QGAWLGAPEPWEPWLD: 0.000273 average fractional NGS count over selection days 2 and 3 (reads of this peptide / all reads for the bait, averaged over ….
The same measure for chain 1 QGAWLGAPEPWEPRLD: 0.000211 average fractional NGS count over selection days 2 and 3 (reads of this peptide / all reads for the bait, averaged over ….
As for chain 1 QGAWLGAPEPWEPKLD, the figure is 0.00411 average fractional NGS count over selection days 2 and 3 (reads of this peptide / all reads for the bait, averaged over …; as for chain 1 QGAWLGAPEPWEPPLD, 0.000127 average fractional NGS count over selection days 2 and 3 (reads of this peptide / all reads for the bait, averaged over ….
With chain 1 QGAWLGAPEPWEPHLD, the screen value is 0.000429 average fractional NGS count over selection days 2 and 3 (reads of this peptide / all reads for the bait, averaged over ….
As for chain 1 QGAWLGAPEPWEPFLD, the figure is 0.00284 average fractional NGS count over selection days 2 and 3 (reads of this peptide / all reads for the bait, averaged over ….
As for chain 1 QGAWLGMPEPWEPLLD, the figure is 0.000666 average fractional NGS count over selection days 2 and 3 (reads of this peptide / all reads for the bait, averaged over …; as for chain 1 QGAWLGYPEPWEPLLD, 0.000616 average fractional NGS count over selection days 2 and 3 (reads of this peptide / all reads for the bait, averaged over …; as for chain 1 QGAWLGWPEPWEPLLD, 0.000255 average fractional NGS count over selection days 2 and 3 (reads of this peptide / all reads for the bait, averaged over ….
Regarding chain 1 QGAWLGNPEPWEPLLD, the screen value is 0.00161 average fractional NGS count over selection days 2 and 3 (reads of this peptide / all reads for the bait, averaged over ….
Regarding chain 1 QGAWLGSPEPWEPLLD, the screen value was 0.00083 average fractional NGS count over selection days 2 and 3 (reads of this peptide / all reads for the bait, averaged over ….
The same measure for chain 1 QGAWLGPPEPWEPLLD: 0.000551 average fractional NGS count over selection days 2 and 3 (reads of this peptide / all reads for the bait, averaged over ….
Turning to chain 1 QGAWLGVPEPWEPLLD, the screen value was 0.00673 average fractional NGS count over selection days 2 and 3 (reads of this peptide / all reads for the bait, averaged over ….
As for chain 1 QGAWLGLPEPWEPLLD, the screen value was 0.000927 average fractional NGS count over selection days 2 and 3 (reads of this peptide / all reads for the bait, averaged over ….
As for chain 1 QGAWLGFPEPWEPLLD, the figure is 0.000134 average fractional NGS count over selection days 2 and 3 (reads of this peptide / all reads for the bait, averaged over …; as for chain 1 QGAWLGTPEPWEPLLD, 0.00295 average fractional NGS count over selection days 2 and 3 (reads of this peptide / all reads for the bait, averaged over …; as for chain 1 QGAWLGAPEPWEPLSD, 0.00194 average fractional NGS count over selection days 2 and 3 (reads of this peptide / all reads for the bait, averaged over ….
The same measure for chain 1 QGAWLGAPEPWEPLND: 0.00024 average fractional NGS count over selection days 2 and 3 (reads of this peptide / all reads for the bait, averaged over …; for chain 1 QGAWLGAPEPWEPLED: 0.00221 average fractional NGS count over selection days 2 and 3 (reads of this peptide / all reads for the bait, averaged over ….
As for chain 1 QGAWLGAPEPWEPLKD, the figure is 0.00133 average fractional NGS count over selection days 2 and 3 (reads of this peptide / all reads for the bait, averaged over …; as for chain 1 QGAWLGAPEPWEPLMD, 0.000609 average fractional NGS count over selection days 2 and 3 (reads of this peptide / all reads for the bait, averaged over ….
With chain 1 QGAWLGAPEPWEPLTD, the screen value is 0.00153 average fractional NGS count over selection days 2 and 3 (reads of this peptide / all reads for the bait, averaged over ….
As for chain 1 QGAWLGAPEPWEPLVD, the figure is 0.00299 average fractional NGS count over selection days 2 and 3 (reads of this peptide / all reads for the bait, averaged over ….
As for chain 1 QGAWLGAPEPWEPLAD, the screen value is 0.00794 average fractional NGS count over selection days 2 and 3 (reads of this peptide / all reads for the bait, averaged over ….
As for chain 1 QGAWLGAPEPWEPLHD, the figure is 0.00012 average fractional NGS count over selection days 2 and 3 (reads of this peptide / all reads for the bait, averaged over …; as for chain 1 QGAWLDAPEPWEPLLD, 0.000544 average fractional NGS count over selection days 2 and 3 (reads of this peptide / all reads for the bait, averaged over …; as for chain 1 QGAWFGAPEPWEPLLD, 0.000119 average fractional NGS count over selection days 2 and 3 (reads of this peptide / all reads for the bait, averaged over ….
The same measure for chain 1 QGAWLGAPEAWEPLLD: 0.000635 average fractional NGS count over selection days 2 and 3 (reads of this peptide / all reads for the bait, averaged over …; for chain 1 QGAWLGAPEGWEPLLD: 0.000535 average fractional NGS count over selection days 2 and 3 (reads of this peptide / all reads for the bait, averaged over …; for chain 1 QGAWLGAPEVWEPLLD: 0.00245 average fractional NGS count over selection days 2 and 3 (reads of this peptide / all reads for the bait, averaged over ….
The same measure for chain 1 QGAWLGAPEIWEPLLD: 0.00391 average fractional NGS count over selection days 2 and 3 (reads of this peptide / all reads for the bait, averaged over …; for chain 1 QGAWLGAPEQWEPLLD: 0.000676 average fractional NGS count over selection days 2 and 3 (reads of this peptide / all reads for the bait, averaged over …; for chain 1 QGAWLGAPETWEPLLD: 0.00164 average fractional NGS count over selection days 2 and 3 (reads of this peptide / all reads for the bait, averaged over ….
Regarding chain 1 QGAWLGAPEEWEPLLD, the screen value was 0.00264 average fractional NGS count over selection days 2 and 3 (reads of this peptide / all reads for the bait, averaged over ….
As for chain 1 QGAWLGAPEDWEPLLD, the figure is 0.00968 average fractional NGS count over selection days 2 and 3 (reads of this peptide / all reads for the bait, averaged over …; as for chain 1 QGAWLGAPEPWMPLLD, 0.00442 average fractional NGS count over selection days 2 and 3 (reads of this peptide / all reads for the bait, averaged over …; as for chain 1 QGAWLGAPEPWDPLLD, 0.000215 average fractional NGS count over selection days 2 and 3 (reads of this peptide / all reads for the bait, averaged over ….
As to chain 1 QGAWLGAPEPWIPLLD, the screen value is 0.000686 average fractional NGS count over selection days 2 and 3 (reads of this peptide / all reads for the bait, averaged over ….
As for chain 1 QGAWLGAPEPWSPLLD, the figure is 0.00302 average fractional NGS count over selection days 2 and 3 (reads of this peptide / all reads for the bait, averaged over …; as for chain 1 QGAWLGAPEPWPPLLD, 0.00101 average fractional NGS count over selection days 2 and 3 (reads of this peptide / all reads for the bait, averaged over ….
